# What was measured:
# [1] = biological target: EPHB1 (UniProt P54762); assay: phosphorylation enrichment, bacterial display (enrichment ratio); higher = better substrate or ligand; peptides without Tyr show the background
# [2] = biological target: Fes (UniProt P07332); assay: as above
# [3] = tested on: c-Abl (mouse); assay: as above
# [4] = biological target: EPHB2 (UniProt P29323); assay: as above
# [5] = tested on: AncSZ; assay: as above
# [6] = biological target: FGFR1 (UniProt P11362); assay: as above
# [7] = biological target: FGFR3 (UniProt P22607); assay: as above
# [8] = tested on: c-Src; assay: as above
# [9] = tested on: Fer (mouse); assay: as above
# [10] = biological target: MERTK (UniProt Q12866); assay: as above
# [11] = biological target: Hck (UniProt P08631); assay: as above
# [12] = biological target: Fyn (UniProt P06241); assay: as above
# [13] = biological target: Jak2 (UniProt O60674); assay: as above
# [14] = biological target: c-Src SH2; assay: SH2 binding enrichment of the phosphorylated peptide, bacterial display (enrichment ratio); higher = better substrate or ligand; peptides without Tyr show the background
# [15] = biological target: SHP2-C SH2; assay: as above
# [16] = biological target: Grb2 SH2 (UniProt P62993); assay: as above
# 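For SH2 binding enrichment of the phosphorylated peptide, bacterial display in this document: peptide library displayed on the E. coli surface as eCPX fusions, selected cells deep-sequenced, score is each peptide's frequency after selection divided by its frequency in the input.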
# 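For phosphorylation enrichment, bacterial display in this document: 11-residue human phosphosite peptides and single-mutation variants displayed on the E. coli surface, counted by deep sequencing, each peptide's frequency after selection divided by its frequency in the unselected input library; frequency after pTyr selection over input frequency; kinase dosed for 20-30% of maximal phosphorylation in three min.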
# Sequence of EPHB2 (P29323 whole entry, looked up): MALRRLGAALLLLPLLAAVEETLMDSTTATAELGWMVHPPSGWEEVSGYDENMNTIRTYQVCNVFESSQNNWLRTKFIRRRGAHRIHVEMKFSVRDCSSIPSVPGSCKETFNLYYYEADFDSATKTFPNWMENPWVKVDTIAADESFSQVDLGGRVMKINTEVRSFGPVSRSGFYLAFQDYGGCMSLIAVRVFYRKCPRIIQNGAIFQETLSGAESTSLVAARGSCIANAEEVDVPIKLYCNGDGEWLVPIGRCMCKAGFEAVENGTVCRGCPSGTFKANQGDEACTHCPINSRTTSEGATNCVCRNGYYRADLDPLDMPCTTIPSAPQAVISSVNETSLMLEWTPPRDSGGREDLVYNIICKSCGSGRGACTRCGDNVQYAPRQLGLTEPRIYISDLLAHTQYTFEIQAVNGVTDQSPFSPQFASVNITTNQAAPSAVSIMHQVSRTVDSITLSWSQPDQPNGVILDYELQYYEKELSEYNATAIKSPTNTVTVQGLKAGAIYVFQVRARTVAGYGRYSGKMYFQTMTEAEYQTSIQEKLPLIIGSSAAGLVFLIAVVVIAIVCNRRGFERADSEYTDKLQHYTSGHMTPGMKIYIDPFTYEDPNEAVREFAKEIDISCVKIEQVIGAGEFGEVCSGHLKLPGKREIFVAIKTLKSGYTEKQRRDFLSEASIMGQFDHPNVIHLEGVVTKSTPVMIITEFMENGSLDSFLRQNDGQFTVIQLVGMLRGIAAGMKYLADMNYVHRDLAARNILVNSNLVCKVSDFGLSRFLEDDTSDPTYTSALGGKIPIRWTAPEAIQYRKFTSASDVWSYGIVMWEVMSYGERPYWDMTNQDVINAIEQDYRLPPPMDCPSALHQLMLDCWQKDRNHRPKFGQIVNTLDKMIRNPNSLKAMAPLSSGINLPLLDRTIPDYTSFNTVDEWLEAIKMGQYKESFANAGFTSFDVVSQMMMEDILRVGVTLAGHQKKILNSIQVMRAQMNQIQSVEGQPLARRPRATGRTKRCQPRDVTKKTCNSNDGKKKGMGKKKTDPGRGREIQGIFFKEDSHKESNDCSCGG
# Sequence of Fyn (P06241 whole entry, looked up): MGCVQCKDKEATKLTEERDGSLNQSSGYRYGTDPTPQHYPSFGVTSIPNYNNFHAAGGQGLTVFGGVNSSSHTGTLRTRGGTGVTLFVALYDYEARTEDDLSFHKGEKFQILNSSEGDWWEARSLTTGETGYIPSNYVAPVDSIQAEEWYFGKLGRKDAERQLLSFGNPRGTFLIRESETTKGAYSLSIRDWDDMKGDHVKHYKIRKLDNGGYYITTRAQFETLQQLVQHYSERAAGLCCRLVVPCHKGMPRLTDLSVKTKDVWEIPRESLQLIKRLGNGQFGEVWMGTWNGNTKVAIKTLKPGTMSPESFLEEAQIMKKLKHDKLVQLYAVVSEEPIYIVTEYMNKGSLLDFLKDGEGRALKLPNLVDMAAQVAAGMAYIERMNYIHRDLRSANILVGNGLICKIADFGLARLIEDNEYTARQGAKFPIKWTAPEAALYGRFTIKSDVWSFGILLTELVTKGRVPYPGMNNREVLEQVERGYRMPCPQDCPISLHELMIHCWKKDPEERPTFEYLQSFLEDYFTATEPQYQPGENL
# Sequence of Hck (P08631 whole entry, looked up): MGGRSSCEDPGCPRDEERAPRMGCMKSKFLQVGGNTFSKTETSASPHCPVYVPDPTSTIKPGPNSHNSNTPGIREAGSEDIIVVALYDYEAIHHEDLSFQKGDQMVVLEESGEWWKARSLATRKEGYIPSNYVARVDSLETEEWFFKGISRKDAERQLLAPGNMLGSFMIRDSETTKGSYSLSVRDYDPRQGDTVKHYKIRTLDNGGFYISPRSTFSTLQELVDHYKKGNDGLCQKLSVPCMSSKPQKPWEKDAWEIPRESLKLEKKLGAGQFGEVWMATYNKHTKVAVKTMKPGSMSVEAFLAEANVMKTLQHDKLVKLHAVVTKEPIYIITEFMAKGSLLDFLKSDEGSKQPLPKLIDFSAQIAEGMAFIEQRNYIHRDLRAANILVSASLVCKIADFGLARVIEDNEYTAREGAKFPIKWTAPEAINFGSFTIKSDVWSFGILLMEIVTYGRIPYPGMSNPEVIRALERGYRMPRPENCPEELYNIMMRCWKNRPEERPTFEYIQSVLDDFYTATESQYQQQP
# Sequence of MERTK (Q12866 whole entry, looked up): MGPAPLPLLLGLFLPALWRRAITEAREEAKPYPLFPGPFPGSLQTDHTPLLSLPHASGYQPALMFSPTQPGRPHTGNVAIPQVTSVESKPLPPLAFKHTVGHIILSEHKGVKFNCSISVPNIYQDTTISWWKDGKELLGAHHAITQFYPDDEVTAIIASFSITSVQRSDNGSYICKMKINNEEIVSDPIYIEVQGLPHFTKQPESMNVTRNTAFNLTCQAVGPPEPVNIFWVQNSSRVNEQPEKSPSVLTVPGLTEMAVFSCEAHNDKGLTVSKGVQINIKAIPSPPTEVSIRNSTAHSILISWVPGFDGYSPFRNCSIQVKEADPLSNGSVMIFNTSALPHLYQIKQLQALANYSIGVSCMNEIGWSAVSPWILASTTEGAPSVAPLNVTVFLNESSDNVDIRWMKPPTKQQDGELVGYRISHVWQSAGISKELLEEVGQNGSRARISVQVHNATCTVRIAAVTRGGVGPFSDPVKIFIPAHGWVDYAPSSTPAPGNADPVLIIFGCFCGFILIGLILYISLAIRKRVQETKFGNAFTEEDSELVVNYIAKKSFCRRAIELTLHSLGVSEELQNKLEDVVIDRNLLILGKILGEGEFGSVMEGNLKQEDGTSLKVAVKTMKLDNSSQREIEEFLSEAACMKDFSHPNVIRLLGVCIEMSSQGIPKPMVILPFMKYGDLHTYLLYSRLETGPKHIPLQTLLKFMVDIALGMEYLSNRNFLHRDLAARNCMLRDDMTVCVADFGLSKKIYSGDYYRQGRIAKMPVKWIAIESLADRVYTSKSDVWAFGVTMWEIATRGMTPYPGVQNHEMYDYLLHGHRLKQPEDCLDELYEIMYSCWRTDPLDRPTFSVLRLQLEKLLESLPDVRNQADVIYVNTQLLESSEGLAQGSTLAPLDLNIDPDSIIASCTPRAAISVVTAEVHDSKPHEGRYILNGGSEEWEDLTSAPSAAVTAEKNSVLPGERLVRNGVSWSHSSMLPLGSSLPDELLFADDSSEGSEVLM
# Sequence of FGFR3 (P22607 whole entry, looked up): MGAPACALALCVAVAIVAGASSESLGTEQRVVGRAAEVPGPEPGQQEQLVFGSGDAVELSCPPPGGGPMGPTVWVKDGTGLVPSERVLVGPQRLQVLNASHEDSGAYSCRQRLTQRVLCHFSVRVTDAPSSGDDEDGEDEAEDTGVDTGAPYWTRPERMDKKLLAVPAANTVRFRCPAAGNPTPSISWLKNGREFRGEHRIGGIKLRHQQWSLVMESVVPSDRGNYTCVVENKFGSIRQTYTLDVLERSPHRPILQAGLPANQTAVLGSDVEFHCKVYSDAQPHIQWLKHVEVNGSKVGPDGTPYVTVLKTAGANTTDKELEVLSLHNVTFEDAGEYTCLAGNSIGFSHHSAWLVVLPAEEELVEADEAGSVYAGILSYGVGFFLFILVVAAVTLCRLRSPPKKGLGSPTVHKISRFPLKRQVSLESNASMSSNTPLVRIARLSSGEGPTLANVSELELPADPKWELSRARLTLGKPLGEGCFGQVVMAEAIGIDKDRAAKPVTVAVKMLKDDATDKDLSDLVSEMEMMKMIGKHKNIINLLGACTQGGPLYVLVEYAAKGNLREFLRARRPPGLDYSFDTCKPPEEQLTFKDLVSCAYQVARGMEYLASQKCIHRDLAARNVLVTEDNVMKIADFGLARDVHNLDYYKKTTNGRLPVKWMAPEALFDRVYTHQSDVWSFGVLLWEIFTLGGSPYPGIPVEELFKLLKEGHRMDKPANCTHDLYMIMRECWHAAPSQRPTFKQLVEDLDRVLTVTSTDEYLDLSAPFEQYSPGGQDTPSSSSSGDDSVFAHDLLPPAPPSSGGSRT
# Sequence of FGFR1 (P11362 whole entry, looked up): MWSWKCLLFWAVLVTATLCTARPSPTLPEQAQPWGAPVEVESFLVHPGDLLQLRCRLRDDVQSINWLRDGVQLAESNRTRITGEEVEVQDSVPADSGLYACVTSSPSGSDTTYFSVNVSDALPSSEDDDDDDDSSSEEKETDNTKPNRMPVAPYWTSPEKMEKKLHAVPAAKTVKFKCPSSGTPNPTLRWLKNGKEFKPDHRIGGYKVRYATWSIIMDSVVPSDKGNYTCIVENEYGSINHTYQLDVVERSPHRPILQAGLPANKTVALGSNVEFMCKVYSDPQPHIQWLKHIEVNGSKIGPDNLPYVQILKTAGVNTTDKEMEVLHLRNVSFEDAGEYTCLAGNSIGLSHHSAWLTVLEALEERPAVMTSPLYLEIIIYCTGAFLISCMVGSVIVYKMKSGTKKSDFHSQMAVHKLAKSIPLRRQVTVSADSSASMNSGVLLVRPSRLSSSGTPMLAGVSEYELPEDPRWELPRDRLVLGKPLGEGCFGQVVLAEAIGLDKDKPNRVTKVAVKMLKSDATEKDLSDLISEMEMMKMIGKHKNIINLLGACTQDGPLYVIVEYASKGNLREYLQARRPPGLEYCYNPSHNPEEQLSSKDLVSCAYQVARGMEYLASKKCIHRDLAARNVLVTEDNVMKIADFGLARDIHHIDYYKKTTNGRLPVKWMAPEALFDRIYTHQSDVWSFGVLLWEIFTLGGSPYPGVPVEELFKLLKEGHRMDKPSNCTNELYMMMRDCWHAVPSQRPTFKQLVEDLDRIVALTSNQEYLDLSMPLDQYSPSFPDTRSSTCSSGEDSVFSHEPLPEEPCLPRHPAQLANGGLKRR
# Sequence of Grb2 SH2 (P62993 whole entry, looked up, the tested form may be a part): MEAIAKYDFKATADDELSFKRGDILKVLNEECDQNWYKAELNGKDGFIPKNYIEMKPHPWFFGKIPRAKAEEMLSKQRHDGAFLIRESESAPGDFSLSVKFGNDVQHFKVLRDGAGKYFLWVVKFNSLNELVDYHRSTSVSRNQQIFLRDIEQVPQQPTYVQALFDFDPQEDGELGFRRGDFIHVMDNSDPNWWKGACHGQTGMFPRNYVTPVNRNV
Sequence,phosphorylation enrichment [1],phosphorylation enrichment [2],phosphorylation enrichment [3],phosphorylation enrichment [4],phosphorylation enrichment [5],phosphorylation enrichment [6],phosphorylation enrichment [7],phosphorylation enrichment [8],phosphorylation enrichment [9],phosphorylation enrichment [10],phosphorylation enrichment [11],phosphorylation enrichment [12],phosphorylation enrichment [13],SH2 binding enrichment [14],SH2 binding enrichment [15],SH2 binding enrichment [16]
PHMQTYEVDPN [SDHB_Y61_L65P],0.782,1.49,0.932,0.628,1.19,0.511,0.761,1.35,0.758,0.522,0.791,0.586,1.04,0.555,0.717,0.974
PLGPLYASSNP [INSR_Y992],1.14,1.65,1.47,1.01,0.96,0.683,0.742,1.35,1.82,1.49,4.49,1.27,0.941,0.75,0.709,0.641
PLGVPYLDKPP [JMJD7_Y31_A28G],0.901,1.64,1.57,0.794,0.955,0.6,0.825,0.909,0.574,0.942,0.463,0.679,1.55,0.46,0.645,0.862
PLRADYLIARV [HLCS_Y635],0.312,1.1,0.853,0.487,0.777,0.8,0.495,0.582,0.515,0.717,0.461,0.319,0.747,0.46,0.711,0.896
PLRAYYLIARV [HLCS_Y635_D634Y],0.543,1.12,0.865,0.726,1.17,1.2,1.31,0.362,0.732,0.636,0.415,0.571,1.71,1.62,1.69,1.67
PPPPAYDDMAQ [TNK2_Y635_V638M],0.441,1.04,0.597,0.632,1.25,0.492,0.762,0.526,0.551,0.675,0.647,0.544,1.14,1.37,0.543,0.699
PQGVGYPPQPQ [EP300_Y2219_Q2223P],0.503,0.904,0.931,0.53,0.972,0.695,0.569,0.802,0.815,0.74,0.571,0.564,0.926,0.666,0.716,0.998
PRPAGYPSTVS [CACNA1C_Y1832],0.327,0.493,0.653,0.413,0.458,0.333,0.446,0.735,0.331,0.363,0.251,0.43,0.55,0.484,0.621,1
PRSRSYFSTSI [REPS2_Y462_S463F],0.478,0.791,0.452,0.797,0.623,0.457,0.574,0.677,0.436,0.496,0.691,0.468,0.635,0.769,0.906,1.08
PSAEGYQDVRD [ABLIM1_Y439],0.656,1.08,0.688,0.649,1.15,0.571,0.699,0.492,0.634,0.348,0.545,0.689,0.873,3.8,0.621,0.812
PSDPSYEDTRE [BMPR1A_Y467_M470T],0.765,2.73,1.71,0.883,1.66,0.813,1.18,1.14,0.894,0.827,1.19,0.887,2.37,1.73,1.52,1.77
PSQRRYVYYYS [PTEN_Y174],0.57,1.08,1.21,0.459,0.958,2.08,0.785,0.872,0.503,2.42,0.497,0.648,1.13,2.25,4.7,1.55
PTTKTYFPHFD [HBA1_Y43],0.374,0.929,0.59,0.396,0.66,0.595,0.625,0.576,0.479,0.553,0.352,0.545,0.572,0.396,0.951,0.825
PVGDVYKKKGL [NMNAT1_Y55_A54V],0.451,0.557,0.417,0.567,0.534,0.498,0.915,0.488,0.487,0.491,0.646,0.465,0.405,0.55,0.748,0.837
PVGVLYEVKVF [PTS_Y128_K129E_YF],1.5,2.67,1.29,0.91,2.17,1.02,1.41,0.89,2.05,1.16,0.986,0.849,2.08,0.611,0.836,0.992
PVKAAYQKVVA [HBB_Y131_Q128K],1.14,0.823,2.43,0.491,0.714,0.539,0.766,0.753,0.588,0.523,0.539,0.648,0.95,0.615,0.879,0.968
PYAEPYADYGG [APBA1_Y187_S184A],1.16,3.07,1.82,1.4,2.86,2.13,1.76,5.47,0.861,0.853,1.19,1.33,2.47,7.71,0.695,0.836

Sequence,phosphorylation enrichment [1],phosphorylation enrichment [2],phosphorylation enrichment [3],phosphorylation enrichment [4],phosphorylation enrichment [5],phosphorylation enrichment [6],phosphorylation enrichment [7],phosphorylation enrichment [8],phosphorylation enrichment [9],phosphorylation enrichment [10],phosphorylation enrichment [11],phosphorylation enrichment [12],phosphorylation enrichment [13],SH2 binding enrichment [14],SH2 binding enrichment [15],SH2 binding enrichment [16]
QAIDEYEKWLE [MAP9_Y603_N601D],1.06,1.41,0.85,0.716,1.5,0.515,1.34,0.479,0.581,0.996,0.607,0.66,1.46,0.432,0.805,0.757
QDGYSYLSRQM [LDLR_Y847_P848L],0.517,0.94,0.541,0.467,0.71,0.995,0.664,0.464,0.562,1.26,0.646,0.305,0.784,8.2,2.11,0.747
QDRTFYESVRT [SPEN_Y633_YF],0.74,1.04,0.717,0.579,1.1,0.529,0.686,1.29,8.88,1.04,2.43,1.21,0.564,1.97,2.39,0.816
QEIATYRRLQE [KRT14_Y415_L419Q],0.568,0.803,1.1,0.721,0.926,0.699,0.512,0.717,0.506,0.7,0.482,0.578,1.51,0.475,1.21,0.702
QELRRYLKSGV [MICA_Y194],0.765,0.787,0.659,0.875,0.652,0.582,0.804,0.577,0.626,0.544,0.957,0.553,0.566,0.465,0.384,0.764
QGIIIYRAAYF [SLC25A4_Y187],0.945,1.91,1.28,0.767,1.32,0.688,1.39,0.544,0.773,0.541,0.639,0.574,1.13,0.515,0.642,1.01
QKTGDYFDLFG [PTPN11_Y62_N58K_YF],11,1.04,0.815,6.35,2.17,20.1,17,0.639,0.434,1.04,0.442,0.971,7.57,0.583,0.854,1.02
QKTGDYYDLYG [PTPN11_Y62_N58K],11,1.33,1.21,6.98,2.31,20.8,16.2,3.77,0.586,3.24,4.6,3.77,2.24,1.38,1.04,0.899
QLATEYVFSDF [PANX1_Y10],0.615,1.85,0.907,0.62,0.996,0.716,1.21,0.837,0.424,0.617,0.703,0.762,1.57,0.511,0.679,0.895
QLHREYCLSPR [HJURP_Y445],0.784,1.12,1.13,0.786,1.38,0.898,0.733,1.34,0.765,0.887,0.889,0.92,0.877,1,1.17,1.09
QMRLKYSQSDL [SMC1A_Y714],0.335,0.863,0.632,0.476,0.704,0.437,0.453,0.481,0.365,0.296,0.369,0.251,0.611,0.597,0.703,0.871
QNTGDYFDLFG [PTPN11_Y62_YF],23.3,1.49,1.48,20.4,8.28,26.8,23.3,1.56,0.753,3.03,1.3,1.26,11.6,0.409,0.689,0.795
QPAGNYSLSSV [ARFGAP3_Y473],0.866,0.946,0.996,0.638,0.985,0.414,0.75,0.798,0.623,0.93,0.715,0.424,0.874,0.486,1,0.812
QPDLLYDHIQP [TRRAP_Y862_F860L],15.2,2.01,3.03,18.1,3.04,1.02,1.5,10.3,25,14.4,15.1,13.5,1.27,0.832,0.517,0.733
QQIFTYDSGIH [JUP_Y22_T19I_YF],0.967,1.32,1.14,0.991,1.46,0.784,1.09,0.939,0.653,0.901,0.833,0.897,1.2,0.653,0.793,0.936
QQPGPYDRPGA [HNRNPH2_Y210_R206Q],0.528,1.39,0.567,0.493,0.683,0.66,0.619,0.577,0.551,0.599,0.662,0.565,0.643,0.857,0.689,0.905

# Source: the supplement of paper PMC10065799, “High-throughput profiling of sequence recognition by tyrosine kinases and SH2 domains using bacterial peptide display” (eLife, 2023)
